Experiment [1] deals with ACE2 (angiotensin-converting enzyme II receptor), full length, expressed on U937 cells (human) (UniProt Q9BYF1). Kind of experiment: adhesion frequency assay (micropipette).
Experiment [2] concerns the target Fc-tagged ACE2 recombinant protein (human) (UniProt Q9BYF1). Kind of experiment: BLI. Background: In BLI a coated tip is dipped into the sample, and binding shifts an interference pattern.

Regarding “SARS2-RBD^WT (receptor-binding domain of the SARS-CoV-2 spike, residues 333-527) (domain or fragment; other documents disagree on this pair)”, in experiment [1], the off-rate constant (koff) was 0.0569 s⁻¹. Moreover, in experiment [2], the dissociation constant Kd came to 0.0667 µM, the dissociation rate constant (koff) worked out at 0.0121 s⁻¹ and the kon was 181000 M⁻¹ s⁻¹.

In general, koff refers to the first-order rate constant of dissociation. Broadly, the Kd is the free concentration of one partner at which half of the binding sites on the other are occupied at equilibrium, for simple one-to-one binding. As a reminder, the kon is the second-order rate constant of association.

Values taken from article PMC8406658.
